We go through 7 molecules from patent US11504432B2, “Delivery system for targeted delivery of a therapeutically active payload” (TECHNISCHE UNIVERSITÄT DRESDEN, priority 2016, dated 2022).

The test system of assay [1] is 293T-Blue^TLR3/PSCA reporter cells. In words: NFkappaB activation, SEAP reporter, PSCA-positive cells. Format: cell-based. How it is done:
The target delivery of TLR3 agonist Riboxxol® to the endosomal compartment of PSCA-positive cells and the resulting NFkappaB activation and induction of apoptosis by the use of the BIC delivery system was investigated using 293T-Blue^TLR3/PSCA reporter cells. 50.000 293T-Blue^TLR3/PSCA cells in 200 μl HEKBlue detection medium were plated in 96 well plates and treated with increasing concentrations of BICs containing RIBOXXOL® and scFv(h-AM1)-BAP or were treated with BICs containing Riboxxol® and scFv(MR1.1)-BAP, which should not bind to the PSCA-positive target cells. The induced secretion of the reporter SEAP, or its enzymatic activity in HEK Blue medium was measured at 655 nm in an ELISA reader after 24 h. […] […] A plateau of activation is reached at a concentration of the anti-PSCA immunoconjugate at 25 nM. […] Apoptosis levels of treated cells were normalized to untreated 293T-Blue^TLR3/PSCA cells by subtracting basal apoptosis levels from induced apoptosis-levels in the treatment groups.

Assay [2] relates to 293T^EGFRvIII/c-Luc cells. In words: Luciferase knockdown by scFv-P-BAP guided polyplexes. It counts as cell-based. The following applies: inhibitor added 4 h prior transfection. How it is done:
As positive RNAi control, cells were transfected with siLuc3 using the transfection reagent Interferin®. For investigating the route of internalization, endocytose inhibitors 0.6 μg/ml filipin III and 6 μg/ml chlorpromazine (both Sigma Aldrich) were added 4 h prior transfection of cells.

The target in another assay is T1, EGFRvIII (Homo sapiens, UniProt P00533, DELINS30-297G).
T1 construct: expressed in transfected cells; host or cells: 293T cells with ectopic EGFRvIII (293T^EGFRvIII)
Kind of assay: Flow cytometry binding of scFvs to 293T^EGFRvIII cells. The following applies: 1 μg scFv. On the procedure: To investigate scFv(MR1.1)-P-BAP binding to EGFRvIII-293T target cells with ectopic expression of the cognate surface receptor, 2×10^5 cells were incubated with 1 μg of recombinant scFv and scFv-P-BAPs, respectively. The bound antibodies were detected either via their myc-epitope using anti-myc/FITC antibody or via their biotin residue using anti-biotin/PE antibody (1:10; Miltenyi Biotec, Bergisch Gladbach, Germany). Cells stained only with secondary antibody were included as a control. […] At least 10,000 stained cells were measured by flow cytometry (MACSQuant, Miltenyi Biotec, Bergisch Gladbach, Germany) and analyzed by FlowJo software version 7.6.5 (TreeStar Inc., Ashland, USA).

In another assay the target is wild type EGFR (Homo sapiens, UniProt P00533). The following applies: cited from earlier work.
The test system of a further assay is 293T^EGFRvIII cells. Kind of assay: EGFRvIII receptor internalization, FACS. Format: cell-based. Particulars: crosslinking with scFv plus anti-myc-antibodies, 2 h to 48 h. How it is done:
(§1) For studies of EGFRvIII and PSCA internalization, 293T^EGFRvIII and 293T^PSCA cells, respectively, were carefully detached with Trypsin/EDTA solution (Sigma/Aldrich). After repeated washing in 1 mg/ml BSA/PBS, 2×10^5 cells were fed with fresh medium and plated in 96 round bottom wells. Crosslinking of receptors was accomplished by incubation with 1 μg parental scFv specific for the cognate receptor for 1 h at 4° C. followed by extensive washing with PBS and treatment with 0.5 μg of biotin-labelled anti-myc antibody (Miltenyi Biotech) for 10 min at 4° C., followed by extensive washing with PBS and feeding with fresh medium. To achieve a monovalent binding of receptors, the 293T^EGFRvIII and 293T^PSCA cells were incubated only with scFv(MR1.1) and scFv(AM1), respectively, for 1 h at 4° C., followed by extensive washing with PBS and feeding with fresh medium. EGFRvIII surface expression was monitored after incubation at 37° C. in a humidified CO2 incubator after 2 h, 4 h, 8 h, 24 h, and 48 h utilizing an anti-biotin-PE antibody (Miltenyi Biotech) for the crosslinked receptors and incubation of biotinylated anti-myc antibody for 10 min at 4° C. followed by anti-biotin-PE antibody staining for 10 min at 4° C., for cells with monovalent binding of receptors. All obtained data were analyzed by FlowJo software version 7.6.5 (TreeStar Inc., Ashland, USA).

The subject of a further assay is tumors. The following applies: in vivo; cited from earlier work.
The target of another assay is EGFRvIII neo-epitope (Homo sapiens, UniProt P00533, DELINS30-297G). Particulars: cited from earlier work.
Another assay relates to 293T^PSCA cells. Kind of assay: PSCA receptor internalization, FACS. It counts as cell-based. The following applies: crosslinking with scFv plus anti-myc-antibodies, 2 h to 48 h. On the procedure:
as §1

For another assay, the target named is T2, PSCA (Homo sapiens, UniProt O43653).
T2 construct: expressed in transfected cells; host or cells: 293T^PSCA cells
T2 sequence (O43653 12-83): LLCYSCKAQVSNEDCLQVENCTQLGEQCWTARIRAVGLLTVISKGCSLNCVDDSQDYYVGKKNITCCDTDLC
Kind of assay: Binding affinity (KD) by flow cytometry on 293T^PSCA cells. The following applies: FIG. 9. How it is done: For determination of binding affinity, murine scFv(AM1) and the humanized scFv(h-AM1) were incubated in descending concentrations with 293T^PSCA cells. After detection with a secondary anti-myc-PE-antibody the MFIs were determined using a MACSQuant Cytometer (Miltenyi Biotech) and FlowJo software and the Kd values were calculated with the PRISM software program. FIG. 9 depicts the graphs for the KD value calculations.

The target in a further assay is avidin (Gallus gallus, UniProt P02701). In words: Conjugation of biotinylated scFvs to avidin, Western blot. It counts as binding. The following applies: molar ratios from 1:1 to 4:1. How it is done:
Conjugation of recombinant biotinylated single chain antibodies was investigated in Western blot experiments. For this 10.7 pmol of recombinant scFv-P-BAP and scFv-BAP was incubated for 30 min at RT with […] as depicted in FIG. 11c for scFv(MR1.1)-P-BAP and FIG. 12 for scFv(MR1.1)-BAP and scFv(h-AM1)-BAP. The avidin/scFv-BAP complexes were subjected to non-reducing SDS-PAGE. After protein transfer onto a Westran PVDF membrane (Whatman GmbH, Dassel, Germany), proteins were detected by a monoclonal murine c-myc-specific antibody (1:5,000, Invitrogen, Carlsbad, USA) and a HRP-labeled rabbit anti-mouse secondary antibody (1:1,000; Dako, Glostrup, Denmark), and after stripping of the membranes by a HRP-conjugated biotin-specific antibody (1:8,000; Sigma-Aldrich, St. Louis, USA). Membranes were visualized and documented using the Luminata Classico Western HRP substrate (Merck Millipore, Darmstadt, Germany) and the imaging system LAS3000 (FujiFilm Europe, Düsseldorf, Germany).

Sequence of avidin (P02701 25-152): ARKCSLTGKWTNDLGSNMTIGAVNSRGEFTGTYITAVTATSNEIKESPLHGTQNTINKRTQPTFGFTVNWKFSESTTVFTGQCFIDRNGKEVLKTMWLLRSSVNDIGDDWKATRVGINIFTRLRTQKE

Regarding `CCCCC[C@@H](O)[C@H]1C(=O)O[C@H](C)[C@@H](O)/C=C/C=C/C=C/C=C/C=C(\C)[C@@H](O)C[C@H](O)C[C@H](O)C[C@H](O)C[C@H](O)C[C@H](O)C[C@@H]1O` [filipin III, reference compound], the “effect on induction of the reporter SEAP by BICs” value in [1] (0.3 μg/ml filipin III) is on record as “slightly weakened induction”. Also, the “effect of endocytosis inhibitor on delivery of EGFRvIII-specific polyplexes” value in assay [2] is “inhibited”.

Consider `CN(C)CCCN1c2ccccc2Sc2ccc(Cl)cc21` [chlorpromazine, reference compound], for which the “inhibition of chlatrin-mediated endocytosis of BICs” value in assay [1] (31 μg/ml of chlorpromazine) is “effectively inhibited”.

B1: scFv(AM1): murine 7F5-derived single chain antibody fragment specific for prostate stem cell antigen (PSCA) (protein, listed as Mus musculus)
scFv: METDTLLLWVLLLWVPGSTGDAAQPARRARRTKLGTELGSQVKLQESGGGLVQPGGSLKLSCVASGFTFSSYTMSWVRRTPEKRLEWVAYIHNGGGHTYYPDTIKGRFTISRDNAKNTLFLEMSSLKSEDTAMYYCTRRMYYGNSHWYFDVWGAGTSVTVSSAKTTPPSVYGGGGSGGGGSGGGGSTNSDIVMTQSPSSLSASLGDRVTINCRTSQDISNYLNWYQLTPDGTVKLLIYYTLKLNSGVPSRFSGSGSGTDYSLTINNLEKEDFATYFCQQSKTLPWTFGGGTKLEIKRADAAPTVSGPKLSSKLKVTVNGTAYDVDVDVDKSHENPMGTILFGGGTGGAPAPAAGGAGAGKAGEGEIPAPLAGTVSKILVKEGDTVKAGQTVLVLEAMKMETEINAPTDGKVEKVLVKERDAVQGGQGLIKIGDLELIEGSSGPEQKLISEEDLNSAVDHHHHHH
Consider B1, for which the “binding to EGFRvIII-positive 293T^EGFRvIII cells” value (“binding” for short) with EGFRvIII is on record as “did not recognize”.

B2: scFv(AM1)-P-BAP: scFv(AM1) fused to PSTCD biotin acceptor peptide, SEQ ID NO: 1 (protein, listed as Mus musculus)
scFv: B1 scFv
Take B2: in the assay with EGFRvIII, the “binding” value is listed as “did not recognize”.

B3: scFv(MR1.1): EGFRvIII-specific single chain fragment variable from the literature [30, 31] (protein)
scFv: QVKLQQSGGGLVKPGASLKLSCVTSGFTFRKFGMSWVRQTSDKRLEWVASISTGGYNTYYSDNVKGRFTISRENAKNTLYLQMSSLKSEDTALYYCTRGYSPYSYAMDYWGQGTTVTVSSSGGGSGGGGSGGGGSDIELTQSPASLSVATGEKATIRCMTSTDIDDDMNWYQQKPGEPPKFLISEGNTLRPGVPSRFSSSGTGTDFVFTIENTLSEDVGDYYCLQSWNVPLTFGDGTKLEIT
modifications: left off: small tags and cut ends
In the case of B3, the “cross-reaction with wild type EGFR” value in the assay with wild type EGFR was “does not cross-react”. Besides, the EGFRvIII internalization entry with 293T^EGFRvIII cells is “time-dependent”. The retention in tumors entry in the assay with tumors was “excellent retention”. Besides, the “affinity to EGFRvIII neo-epitope” value with EGFRvIII neo-epitope is “high affinity”.

B4: scFv(h-AM1): humanized PSCA-specific scFv with c-Myc-Tag, Bio-Tag BAP and His6, SEQ ID NO: 2 (protein)
scFv: METDTLLLWVLLLWVPGSTGDAAQPARRARRTKLGTELGSEVQLLESGGGLVQPGGSLRLSCVASGFTFSSYTMSWVRQAPGKGLEWVSYIHNGGGHTYYADSVKGRFTISRDNSKNTLYLQMNSLRAEDTAVYYCTRRMYYGNSHWYFDVWGAGTRVTITSAKTTPPSVYGGGGSGGGGSGGGGSTNSDIQMTQSPSSLSASVGDRVTITCRTSQSISNYLNWYQQKPGKAPKLLIYYTLKLNSGVPSRFSGSGSGTDFTLTISSLQPEDFATYYCQQSKTLPWTFGGGTKLEIKRADAAPTVSGPEQKLISEEDLNSAVDMSGLNDIFEAQKIEWHEGAPSSHHHHHH
modifications: Humanized antibody
In the case of B4, the PSCA internalization result in the assay on 293T^PSCA cells is listed as “time-dependent”. In the assay with PSCA, the “affinity to PSCA compared to parental murine scFv” value is recorded as “improved affinity”.

B5: scFv(MR1.1)-P-BAP: scFv(MR1.1) fused to PSTCD biotin acceptor peptide, SEQ ID NO: 3 (protein)
scFv: METDTLLLWVLLLWVPGSTGDAAQPARRARRTKLGTELGSHMQVKLQQSGGGLVKPGASLKLSCVTSGFTFRKFGMSWVRQTSDKRLEWVASISTGGYNTYYSDNVKGRFTISRENAKNTLYLQMSSLKSEDTALYYCTRGYSPYSYAMDYWGQGTTVTVSSSGGGSGGGGSGGGGSDIELTQSPASLSVATGEKATIRCMTSTDIDDDMNWYQQKPGEPPKFLISEGNTLRPGVPSRFSSSGTGTDFVFTIENTLSEDVGDYYCLQSWNVPLTFGDGTKLEITKLSSKLKVTVNGTAYDVDVDVDKSHENPMGTILFGGGTGGAPAPAAGGAGAGKAGEGEIPAPLAGTVSKILVKEGDTVKAGQTVLVLEAMKMETEINAPTDGKVEKVLVKERDAVQGGQGLIKIGDLELIEGSSGPEQKLISEEDLNSAVDHHHHHH
modifications: Single chain antibody fragment
Regarding B5, in the assay with avidin, the conjugation to avidin entry is on record as “efficiently conjugated”. The “binding” value in the assay with EGFRvIII is “bind”.
